Where “and” joins values, the source holds several entries; their conditions need not be identical. Equal entries are not always repeated.

The source of these data is patent publication US20160185837A1, “GIP AND GLP-1 RECEPTOR DUAL-AGONISTS FOR THE TREATMENT OF DIABETES” (Medimmune Limited, priority 2013, published 2016).

Holding throughout (assay): cell-based or functional assay
Assay [1] deals with T1, human GIP receptor (human) (UniProt P48546).
T1 sequence (looked up): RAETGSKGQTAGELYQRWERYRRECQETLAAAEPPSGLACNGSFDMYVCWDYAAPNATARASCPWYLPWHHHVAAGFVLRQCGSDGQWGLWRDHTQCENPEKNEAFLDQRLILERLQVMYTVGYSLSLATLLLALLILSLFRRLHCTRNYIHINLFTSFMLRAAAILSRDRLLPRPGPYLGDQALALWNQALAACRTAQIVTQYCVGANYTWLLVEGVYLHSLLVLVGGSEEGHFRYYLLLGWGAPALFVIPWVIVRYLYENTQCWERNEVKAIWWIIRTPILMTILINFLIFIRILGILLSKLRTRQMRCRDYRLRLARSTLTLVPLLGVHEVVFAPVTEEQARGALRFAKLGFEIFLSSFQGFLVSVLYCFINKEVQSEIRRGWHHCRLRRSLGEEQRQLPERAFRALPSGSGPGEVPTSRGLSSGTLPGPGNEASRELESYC

Assay [2] concerns the target human GLP-1 receptor (human) (UniProt P43220).
Assay [3] has as its target T2, mouse GIP receptor (mouse) (UniProt Q0P543).
T2 sequence (looked up): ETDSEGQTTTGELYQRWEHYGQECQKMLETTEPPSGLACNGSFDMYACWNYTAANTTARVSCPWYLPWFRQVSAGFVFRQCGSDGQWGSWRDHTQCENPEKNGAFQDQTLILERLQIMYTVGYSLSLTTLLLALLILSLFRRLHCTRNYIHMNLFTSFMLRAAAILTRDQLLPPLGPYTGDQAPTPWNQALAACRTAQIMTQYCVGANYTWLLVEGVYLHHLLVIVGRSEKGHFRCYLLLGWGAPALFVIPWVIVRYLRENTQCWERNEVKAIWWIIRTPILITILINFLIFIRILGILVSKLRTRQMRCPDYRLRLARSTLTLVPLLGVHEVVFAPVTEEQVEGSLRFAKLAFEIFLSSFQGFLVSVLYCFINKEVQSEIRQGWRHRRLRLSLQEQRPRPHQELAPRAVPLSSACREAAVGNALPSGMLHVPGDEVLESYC

The target in assay [4] is mouse GLP-1 receptor (mouse) (UniProt O35659).
Sequence of mouse GLP-1 receptor (mouse) (O35659 22-463): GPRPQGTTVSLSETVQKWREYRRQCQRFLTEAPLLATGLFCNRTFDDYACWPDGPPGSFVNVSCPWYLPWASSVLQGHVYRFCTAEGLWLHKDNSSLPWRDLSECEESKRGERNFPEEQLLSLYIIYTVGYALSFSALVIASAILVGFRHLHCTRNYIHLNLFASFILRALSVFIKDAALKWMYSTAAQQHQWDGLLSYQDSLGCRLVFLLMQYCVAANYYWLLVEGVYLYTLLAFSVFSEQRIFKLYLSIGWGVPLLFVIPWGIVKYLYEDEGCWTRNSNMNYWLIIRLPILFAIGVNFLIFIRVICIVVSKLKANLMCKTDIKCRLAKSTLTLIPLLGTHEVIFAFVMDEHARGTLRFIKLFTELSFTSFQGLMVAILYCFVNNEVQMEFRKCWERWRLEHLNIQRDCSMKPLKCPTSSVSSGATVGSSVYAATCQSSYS
For assay [5], the target named is T3, rat GIP receptor (rat) (UniProt P43219).
T3 sequence (looked up): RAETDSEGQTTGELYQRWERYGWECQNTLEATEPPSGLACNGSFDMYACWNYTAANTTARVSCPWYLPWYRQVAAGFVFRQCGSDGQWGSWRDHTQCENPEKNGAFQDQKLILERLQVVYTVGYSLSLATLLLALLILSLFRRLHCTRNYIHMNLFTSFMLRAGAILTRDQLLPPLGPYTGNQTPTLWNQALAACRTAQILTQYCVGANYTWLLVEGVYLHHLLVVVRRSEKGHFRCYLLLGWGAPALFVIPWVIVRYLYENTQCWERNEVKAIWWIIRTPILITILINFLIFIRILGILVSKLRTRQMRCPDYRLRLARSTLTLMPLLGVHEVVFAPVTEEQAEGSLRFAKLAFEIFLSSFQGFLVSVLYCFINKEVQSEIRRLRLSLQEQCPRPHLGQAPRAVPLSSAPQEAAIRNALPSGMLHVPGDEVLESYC

For assay [6], the target named is rat GLP-1 receptor (rat) (UniProt P32301).
Sequence of rat GLP-1 receptor (rat) (P32301 22-463): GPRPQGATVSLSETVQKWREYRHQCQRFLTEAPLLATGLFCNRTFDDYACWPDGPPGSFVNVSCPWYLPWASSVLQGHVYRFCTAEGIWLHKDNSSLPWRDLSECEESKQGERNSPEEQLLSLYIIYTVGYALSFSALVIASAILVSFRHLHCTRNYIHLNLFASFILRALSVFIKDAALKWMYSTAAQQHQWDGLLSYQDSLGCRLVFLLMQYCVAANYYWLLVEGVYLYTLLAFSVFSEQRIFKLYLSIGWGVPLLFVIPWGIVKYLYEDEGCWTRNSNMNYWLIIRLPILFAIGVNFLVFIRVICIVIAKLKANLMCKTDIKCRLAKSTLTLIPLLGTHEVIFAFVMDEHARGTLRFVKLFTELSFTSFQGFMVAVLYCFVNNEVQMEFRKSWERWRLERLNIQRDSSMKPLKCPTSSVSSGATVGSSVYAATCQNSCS
In assay [7] the target is human glucagon receptor (human) (UniProt P47871).
Sequence of human glucagon receptor (human) (P47871 26-477): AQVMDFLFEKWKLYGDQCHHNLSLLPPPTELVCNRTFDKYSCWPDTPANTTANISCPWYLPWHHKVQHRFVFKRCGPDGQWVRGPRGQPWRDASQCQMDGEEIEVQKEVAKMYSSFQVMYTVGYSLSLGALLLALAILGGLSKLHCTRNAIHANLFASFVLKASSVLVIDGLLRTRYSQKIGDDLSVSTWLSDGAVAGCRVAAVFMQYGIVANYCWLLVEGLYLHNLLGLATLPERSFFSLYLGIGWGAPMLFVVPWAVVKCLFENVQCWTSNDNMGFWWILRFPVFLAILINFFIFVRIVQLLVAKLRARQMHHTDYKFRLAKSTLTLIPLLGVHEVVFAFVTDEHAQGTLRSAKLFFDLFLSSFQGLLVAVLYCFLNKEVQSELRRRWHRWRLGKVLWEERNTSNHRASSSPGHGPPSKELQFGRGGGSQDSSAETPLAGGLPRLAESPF

Sequence of human GLP-1 receptor (human) (P43220 24-463): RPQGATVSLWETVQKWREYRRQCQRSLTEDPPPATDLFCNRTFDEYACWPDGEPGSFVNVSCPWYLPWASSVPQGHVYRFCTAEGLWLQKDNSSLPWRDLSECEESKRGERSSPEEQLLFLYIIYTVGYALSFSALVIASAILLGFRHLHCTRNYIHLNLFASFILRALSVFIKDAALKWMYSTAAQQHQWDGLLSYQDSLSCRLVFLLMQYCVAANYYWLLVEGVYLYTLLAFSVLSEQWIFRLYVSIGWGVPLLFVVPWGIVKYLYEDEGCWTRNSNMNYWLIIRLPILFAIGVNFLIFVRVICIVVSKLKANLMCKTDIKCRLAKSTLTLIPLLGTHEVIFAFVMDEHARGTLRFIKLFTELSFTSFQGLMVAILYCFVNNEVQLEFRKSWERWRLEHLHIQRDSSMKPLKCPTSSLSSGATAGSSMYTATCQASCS

B1: IP226 (Fc fusion)
chain: YSEGTFTSDVSKLLERQAIDEFIAWLLKGGAAAGGSGSTASSGSGSATGGGGAATHTCPPCPAPEF
As for B1, the cAMP EC50 was found to be 0.025 nM in assay [1]; 0.2 nM in assay [2]; 7.5 nM in assay [3]; 1 nM in assay [4]; 0.27 nM in assay [5]; 0.061 nM in assay [6].

B2: IP223 (Fc fusion)
chain: YSEGTFTSDVSSYMEEEAIDEFIAWLLKGGAAAGGSGSTASSGSGSATGGGGAATHTCPPCPAPEF
Turning to B2, the cAMP EC50 in assay [1] came to 2.5 nM; in assay [2], 16 nM; in assay [4], 80 nM; in assay [5], 72 nM; in assay [6], 18 nM.

B3: IP250 (Fc fusion)
chain: YSEGTFTSDVSIAMDRQAIDEFIAWLLKGGAAAGGSGSTASSGSGSATGGGGAATHTCPPCPAPEF
Consider B3, for which the cAMP EC50 is 0.11 nM in assay [1]; 1.1 nM in assay [2]; 35 nM in assay [3]; 22 nM in assay [4]; 5.3 nM in assay [5]; 2.2 nM in assay [6].

B4: IP018 (Fc fusion)
chain: YSEGTFISDYSIAMDKIHQQDFVNWLLAQKAAAGGSGSTASSGSGSATGGGGAATHTCPPCPAPEF
Regarding B4, the cAMP EC50, Batch 1 in assay [1] came to 0.0026 nM; in assay [3], 0.022 nM; in assay [5], 0.0076 nM. The cAMP EC50, Batch 2 in assay [1] is 0.0051 nM and 0.0093 nM; in assay [2], 4200 nM; in assay [7], 480 nM. Besides, the cAMP EC50, Batch 3 in assay [1] was 0.0064 nM; in assay [2] it was more than 6350 nM; in assay [7], 720 nM. In assay [1], this molecule returned a cAMP EC50, hGIPr (C3) line of 0.8 nM. Also, the cAMP EC50 in assay [2] and in assay [7] was more than 317 nM each time.

B5: IP413 (Fc fusion)
chain: YSEGTFTSDYSKLLEEEASRLFIEWLLAGGGGGGSGGGGSGGGGSGGGGSATHTCPPC
As to B5, the cAMP EC50 in assay [2] was 0.19 nM; in assay [7], 7.6 nM; in assay [3], 3.7 nM; in assay [4] it was 8.9 nM; in assay [5] it was more than 113 nM; in assay [6], 0.048 nM.

B6: IP343 (Fc fusion)
chain: YSEGTFTSDYAAAAERQAIDAFAAWLAAAAGGGGGSGGGGSGGGGSGGGGSA
Consider B6, for which the cAMP EC50 is 72 nM in assay [1]; 960 nM in assay [2]; more than 2070 nM in assay [7]; 880 nM in assay [3]; more than 2070 nM in assay [4]; 110 nM in assay [5]. Besides, in assay [6], the cAMP EC50 is 360 nM.

B7: IP330 (Fc fusion)
chain: YSEGTFTSDYSKLLERQAIDEFIALLLKGGGGGGGSGGGGSGGGGSGGGGSGGGGSGGGGSA
Consider B7, for which the cAMP EC50 in assay [1] amounted to 0.009 nM; in assay [2], 0.66 nM; in assay [7], 1100 nM; in assay [3] it was 0.45 nM; in assay [4], 5.5 nM; in assay [5], 0.023 nM. Besides, the cAMP EC50 in assay [6] is 0.089 nM.

B8: IP331 (Fc fusion)
chain: YSEGTFTSDYSKLLERQAIDEFIADLLKGGGGGGGSGGGGSGGGGSGGGGSGGGGSGGGGSA
Turning to B8, the cAMP EC50 is 0.013 nM in assay [1]; 2.6 nM in assay [2]; more than 1950 nM in assay [7]; 4 nM in assay [3]; 22 nM in assay [4]; 0.06 nM in assay [5]. For the same molecule, the cAMP EC50 in assay [6] stood at 0.31 nM.
